Measurements from patent publication US20240383995A1 (SHANGHAI HENLIUS BIOTECH, published 2024).

Biological target: T1, Human OX40 expressed on transfected Jurkat or CHO cells (human, UniProt P43489 29-277)
T1 construct: also called human OX40/Jurkat; human OX40/CHO
T1 sequence: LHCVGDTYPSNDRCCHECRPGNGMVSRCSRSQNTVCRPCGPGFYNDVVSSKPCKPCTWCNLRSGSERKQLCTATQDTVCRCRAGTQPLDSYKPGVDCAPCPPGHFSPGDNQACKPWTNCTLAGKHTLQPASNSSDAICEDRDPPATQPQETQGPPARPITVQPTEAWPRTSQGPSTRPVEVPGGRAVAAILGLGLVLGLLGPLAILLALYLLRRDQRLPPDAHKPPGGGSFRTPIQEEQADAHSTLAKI
Experiment: flow cytometry on human OX40-transfected Jurkat cells, Alexa Fluor488 anti-human IgG Fc, Geo MFI
Procedure: FIGS. 2A-2C depict whole cell binding of humanized anti-OX40 antibodies to human or cynomolgus OX40 assessed by flow cytometry. Human OX40-expressing Jurkat cells (FIG. 2A), human OX40-expressing CHO cells (FIG. 2B) and cynomolgus OX40-expressing CHO cells (FIG. 2C) were incubated with indicated anti-OX40 bivalent antibodies, and then stained with Alexa Fluor488 conjugated anti-human IgG Fc antibody. The fluorescence intensity was measured by flow cytometry.
Bivalent antibodies of these 15 clones were made by fusing VHH to human IgG1 Fc, expressed in ExpiCHO cells, and purified by Protein A affinity column. Binding affinity of the VHH-Fc bivalent antibodies to human or cynomolgus OX40 was evaluated by flow cytometry using Jurkat cells transfected with human OX40 (human OX40/Jurkat) (FIG. 2A), CHO cells transfected with human OX40 (human OX40/CHO) (FIG. 2B), and CHO cells transfected with cynomolgus OX40 (cyno OX40/CHO) (FIG. 2C). These antibodies with indicated concentrations were incubated with the cells in FACS buffer (3% FBS in PBS) on ice for 30 min, and the free antibodies were washed out with FACS buffer. […] Binding affinity was calculated using GraphPad Prism three parameter logistic equation. […]

EC50 (read off the curve): ~3 nM
B1: 1B3 VHH-Fc bivalent antibody (antibody, human IgG1, V domains shown)
VH: EVQLVESGGGLVQPGGSLRLSCAASGPLGMPSIAWFRQAPGKGLEFVSGIAWSTGDTYYADSVKGRFTISRDNSKNTLYLQMNSLRAEDTAVYYCAADTQVHYMGRHDIRDREEYDYWGQGTLVTVSS
notes: no light chain; also called 1B3-bivalent
